The numbers were not newly measured in paper PMC7564214, which cites them from elsewhere.

For this series, the target named is LC3B (Homo sapiens) (UniProt Q9GZQ8).

Usually Kd stands for the equilibrium constant for the complex coming apart. As to TRIM5α (from UniProt Q9C035), the equilibrium dissociation constant (Kd) was 100 µM.
